The subject of the data set is 19-mer (SEQ ID NO:11) cleavage domain peptide.

Active MMP-9 enzyme, sequence (chain, as listed by the source): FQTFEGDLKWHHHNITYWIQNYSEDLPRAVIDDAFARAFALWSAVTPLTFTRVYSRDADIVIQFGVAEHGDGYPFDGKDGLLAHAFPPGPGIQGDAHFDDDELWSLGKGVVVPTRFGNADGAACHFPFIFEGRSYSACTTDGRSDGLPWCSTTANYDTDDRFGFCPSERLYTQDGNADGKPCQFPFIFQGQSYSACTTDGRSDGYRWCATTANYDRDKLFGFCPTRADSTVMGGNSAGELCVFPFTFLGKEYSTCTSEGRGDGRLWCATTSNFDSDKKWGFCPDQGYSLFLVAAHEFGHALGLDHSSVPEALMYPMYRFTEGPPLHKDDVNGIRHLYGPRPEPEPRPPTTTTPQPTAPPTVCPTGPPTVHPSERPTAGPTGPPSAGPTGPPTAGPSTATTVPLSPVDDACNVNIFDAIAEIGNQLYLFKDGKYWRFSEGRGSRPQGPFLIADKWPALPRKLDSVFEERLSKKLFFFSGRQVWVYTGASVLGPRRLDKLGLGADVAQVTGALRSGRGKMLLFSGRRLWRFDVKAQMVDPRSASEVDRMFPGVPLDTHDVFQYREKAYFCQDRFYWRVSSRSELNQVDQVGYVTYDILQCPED

With Active MMP-9 enzyme, the “extended time course of MMP-9 catalyzed hydrolysis of collagen” value was “the 19-mer (SEQ ID NO:11) effectively inhibits the MMP-9 catalyzed hydrolysis of collagen to beyond 1000 minutes”.

(Values after patent publication US20030096757.)
